Reference: patent publication US20220387487A1, “COMPOSITIONS AND METHODS FOR TREATMENT OF CANCER” (Aleta Biotherapeutics Inc., priority 2019, published 2022)
Read-outs that look alike come from different tables or passages of the source.

Target: CLEC12A
Experiment: ELISA binding of fusion proteins (FMC63 coat, HRP-anti-His detection)
Design: species or system human
Details: purified fusion protein
Description: The binding of the biparatopic fusion proteins to CLEC12A was also examined by ELISA. […] The plate was left to incubate overnight at 4° C. The coated plate was blocked with TBS/0.3% nonfat dry milk (NFD) for 60 minutes at RT.

Chain of CLEC12A (as listed by the source): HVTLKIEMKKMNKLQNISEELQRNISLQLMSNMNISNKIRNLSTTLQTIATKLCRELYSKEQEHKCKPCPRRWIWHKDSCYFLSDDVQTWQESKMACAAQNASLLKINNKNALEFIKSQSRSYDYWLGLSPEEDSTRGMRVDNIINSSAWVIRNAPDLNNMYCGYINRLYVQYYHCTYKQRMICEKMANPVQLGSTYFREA

B1: #330: fusion protein comprised of a CD19 variant and an anti-CLL-1 VHH (2H3); SEQ ID NO:305 (protein)
chain: MEFGLSWVFLVALFRGVQCQVQLQESGGGLVQAGGSLRLSCVASGSIRSINVMGWYRQAPGKQRELVAACASDGNTYYADSVKGRFTISRDNAEKTVYLQMNNLKPDDTAVYYCDANSRGNYYSGQGTQVTVSSTSGPGGQGAGGGGSGGGGSGGGGSGGGGSPEEPLVVKVEEGDTAALWCLKGTSDGPTQQLTWSRESPLKPFLKYSLGVPGLGVHVRPDAISVVIRNVSQQMGGFYLCQPGPPSEKAWQPGWTVNVEGSGELFRWNVSDLGGLGCGLKNRSSEGPSSPSGKLMSPKLYVWAKDRPEIWEGEPPCLPPRDSLNQSLSRDLTVAPGSTLWLSCGVPPDSVSRGPLSWTHVHPKGPKSLLSLELKDDRPARDMWVMGTSLMLPRATAQDAGKWYCHRGNLTMSFHLEITARPSRHHHHHH
FMC63 coat, read-out: CLEC12A binding (ELISA EC50)
  EC50: 0.013 nM
Table 8, read-out: EC50 of binding by ELISA
  EC50: 0.01 nM
